Experimental data: FireProtDB (doi:10.1006/jmbi.2001.4993)

Settings: Equus caballus, pH 7, 10 °C, GdnHCl, sodium dithionite 0.5-2 mM, reversible: yes

Chain of Cytochrome c wild type, P00004 (P00004 whole entry): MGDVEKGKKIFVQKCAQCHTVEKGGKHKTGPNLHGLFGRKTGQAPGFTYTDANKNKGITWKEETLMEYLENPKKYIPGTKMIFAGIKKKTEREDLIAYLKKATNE

Cytochrome c wild type, P00004
denaturant midpoint (higher = more stable) (Absorbance): 5.1 M
unfolding free energy (Absorbance): 18.8 kcal/mol
denaturant midpoint (higher = more stable) (Absorbance, transition: 3): 5.01 M
denaturant midpoint (higher = more stable) (Fluorescence): 5.1 M
unfolding free energy (Fluorescence): 18.8 kcal/mol
denaturant midpoint (higher = more stable) (Fluorescence, transition: 3): 5.02 M
